We go through three molecules from publication PMC9701387, “CDH17 nanobodies facilitate rapid imaging of gastric cancer and efficient delivery of immunotoxin” (Biomaterials Research, 2022).

The Kd is the constant that tells how readily two partners part at equilibrium.

B3: CDH17 domain 1-3 (human), recombinant (domain or fragment)
chain: QEGKFSGPLKPMTFSIYEGQEPSQIIFQFKANPPAVTFELTGETDNIFVIEREGLLYYNRALDRETRSTHNLQVAALDANGIIVEGPVPITIKVKDINDNRPTFLQSKYEGSVRQNSRPGKPFLYVNATDLDDPATPNGQLYYQIVIQLPMINNVMYFQINNKTGAISLTREGSQELNPAKNPSYNLVISVKDMGGQSENSFSDTTSVDIIVTENIWKAPKPVEMVENSTDPHPIKITQVRWNDPGAQYSLVDKEKLPRFPFSIDQEGDIYVTQPLDREEKDAYVFYAVAKDEYGKPLSYPLEIHVKVKDINDNPPTC
notes: Cadherin-17 (CDH17, LI-cadherin), human, extracellular cadherin domains 1-3; soluble protein of about 40 kD; the supplementary methods (Additional file 1) may hold them; also called extracellular domain 1-3 of CDH17; CDH17 protein; source: E. coli BL21 (DE3), purified (Ni-NTA, Superdex gel filtration)

In assay [1] the target is B3. Put plainly: SPR; format and conditions not told in the text shown. The note with it: both partners purified. In general terms: SPR reads the build-up and loss of mass on a sensor chip optically.
The next assay addresses E8-PE38 immunotoxin (alpaca (Lama pacos) | Pseudomonas …). Described as above. The following applies: both partners purified.

B1: A1 nanobody (VHH)
VHH: AVQLVESGGGLVQAGDSLRLSCAASGRTFSSNGMGWFRQAPGKGREFVAAISWNAGTTLYTDSVKGRFTISRDNAKNTVYLQMNSLKPEDTAIYYCAAREYYGGSYYPSREYEYGYWGQGTQVTVSS
notes: from a naive alpaca VHH phage library; HA tag joined to the C-terminus by a GA linker; a cysteine is attached at the end of the HA tag; The purified protein was confirmed with His tag and HA tag antibodies; also called CDH17 nanobody A1; source: E. coli (pColdII vector), purified (Ni-NTA); not shown: HA, C-terminal, kept
B1: in assay [1], the Kd came out at 0.377 µM.

B2: E8 nanobody (VHH)
VHH: AVQLVESGGGLVQPGGSLRLSCTASGSILSFNSMGWHRQAPGRQRELVAGISIHKTSSNYANFVKGRFTISRDDAKNTVYLQMNSLKPEDTAVYYCAAVQRGQSRISYWGQGTQVTVSS
notes: from a naive alpaca VHH phage library; shorter CDR3 than A1; HA tag joined to the C-terminus by a GA linker; a cysteine is attached at the end of the HA tag; The purified protein was confirmed with His tag and HA tag antibodies; also called CDH17 nanobody E8; naked E8 nanobody; source: E. coli (pColdII vector), purified (Ni-NTA); not shown: HA, C-terminal, kept
On to B2, for which the Kd in assay [1] came out at 0.0703 µM.
In the assay with E8-PE38 immunotoxin, B3 showed a Kd of 0.0869 µM.
